Laboratory results from patent US20230265151A1, “GIP/GLP1 CO-AGONIST COMPOUNDS” (priority 2020, published 2023).

T1: human glucose-dependent insulinotropic polypeptide (GIP) receptor (human, UniProt P48546 22-466)
T1 sequence (looked up): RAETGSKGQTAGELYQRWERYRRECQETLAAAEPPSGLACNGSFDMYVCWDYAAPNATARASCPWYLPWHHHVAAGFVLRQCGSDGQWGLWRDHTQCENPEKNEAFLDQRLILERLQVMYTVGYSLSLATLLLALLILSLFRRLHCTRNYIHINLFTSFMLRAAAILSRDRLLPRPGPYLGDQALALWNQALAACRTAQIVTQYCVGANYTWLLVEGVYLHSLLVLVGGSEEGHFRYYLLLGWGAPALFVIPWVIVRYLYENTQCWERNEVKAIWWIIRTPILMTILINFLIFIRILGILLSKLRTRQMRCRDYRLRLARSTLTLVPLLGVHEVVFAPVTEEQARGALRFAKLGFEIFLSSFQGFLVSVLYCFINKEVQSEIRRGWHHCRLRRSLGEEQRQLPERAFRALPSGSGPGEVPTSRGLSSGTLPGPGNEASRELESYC

B1: Example 282 (peptide)
peptide: YXEGTXTSDXSIXLDXKAQXEFIXXLIKGGPSSGAPPPS
modifications: Aib2, αMeF(2F)6, 2Nal10, αMeL13, Orn16, K17(Z), Aib20, D-Glu24, αMeY25, K28(Z), C-terminal NH2; Z = AEEA2-(γ-Glu)-(10-(4-carboxyphenoxy)decanoyl)
B2: Example 287 (peptide)
peptide: YXEGTXTSDXSIXLDXIAQXKFIXXLIKGGPSSGAPPPS
modifications: Aib2, αMeF(2F)6, 4Pal10, αMeL13, Orn16, Aib20, K21(Z), D-Glu24, αMeY25, K28(Z), C-terminal NH2; Z = AEEA2-(γ-Glu)-(11-(4-carboxyphenoxy)undecanoyl)
B3: Example 161 (peptide)
peptide: YXEGTXTSDXSIXLDXKAQXEFIKXLIEGGPSSGAPPPS
modifications: Aib2, aMeF(2F)6, 4Pal10, aMeL13, Orn16, K17(Z), Aib20, K24(Z), αMeY25, C-terminal NH2; Z = eK-gE-C14_OH (so in the source)
B4: Example 286 (peptide)
peptide: YXEGTXTSDXSIXLDXIAQXEFIKXLIKGGPSSGAPPPS
modifications: Aib2, αMeF(2F)6, 4Pal10, αMeL13, Orn16, Aib20, K24(Z), αMeY25, K28(Z), C-terminal NH2; Z = AEEA2-(γ-Glu)-(11-(4-carboxyphenoxy)undecanoyl)
B5: Example 179 (peptide)
peptide: YXEGTXTSDVSIXLDXKAQXEFIXXLIEGGKSSGAPPPS
modifications: Aib2, αMeF6, αMeL13, Orn16, K17(Z), Aib20, D-Glu24, αMeY25, K31(Z), C-terminal NH2; Z = AEEA2-(γ-Glu)-CO-(CH2)12-CO2H
B6: Example 280 (peptide)
peptide: YXEGTXTSDXSIXLDXIAQXKFIXXLIKGGPSSGAPPPS
modifications: Aib2, αMeF(2F)6, OMeY10, αMeL13, Orn16, Aib20, K21(Z), D-Glu24, αMeY25, K28(Z), C-terminal NH2; Z = AEEA2-(γ-Glu)-(10-(4-carboxyphenoxy)decanoyl)
B7: Example 283 (peptide)
peptide: YXEGTXTSDXSIXLDXIAQXEFIKXLIKGGPSSGAPPPS
modifications: Aib2, αMeF(2F)6, 2Nal10, αMeL13, Orn16, Aib20, K24(Z), αMeY25, K28(Z), C-terminal NH2; Z = AEEA2-(γ-Glu)-(10-(4-carboxyphenoxy)decanoyl)
B8: Example 275 (peptide)
peptide: YXEGTXTSDXSIXLDXIAQXKFIXXLIKGGPSSGAPPPS
modifications: Aib2, αMeF(2F)6, 4Pal10, αMeL13, Orn16, Aib20, K21(Z), D-Glu24, αMeY25, K28(Z), C-terminal NH2; Z = AEEA2-(γ-Glu)-(10-(4-carboxyphenoxy)decanoyl)
B9: Example 274 (peptide)
peptide: YXEGTXTSDXSIXLDXIAQXEFIKXLIKGGPSSGAPPPS
modifications: Aib2, αMeF(2F)6, 4Pal10, αMeL13, Orn16, Aib20, K24(Z), αMeY25, K28(Z), C-terminal NH2; Z = AEEA2-(γ-Glu)-(10-(4-carboxyphenoxy)decanoyl)
B10: Example 181 (peptide)
peptide: YXEGTXTSDVSIXLDXKAQXEFIKXLIEGGPSSGAPPPS
modifications: Aib2, αMeF6, αMeL13, Orn16, K17(Z), Aib20, K24(Z), αMeY25, C-terminal NH2; Z = AEEA2-(γ-Glu)-CO-(CH2)12-CO2H
B11: Example 169 (peptide)
peptide: YXEGTXTSDXSIXLDXKAQXEFIXXLIEGGKSSGAPPPS
modifications: Aib2, αMeF(2F)6, 4Pal10, αMeL13, Orn16, K17(Z), aMeF20, D-Glu24, αMeY25, K31(Z), C-terminal NH2; Z = AEEA2-(γ-Glu)-CO-(CH2)12-CO2H
B12: Example 172 (peptide)
peptide: YXEGTXTSDXSIXLDXKAQXEFIXXLIEGGKSSGAPPPS
modifications: Aib2, αMeF6, 4Pal10, αMeL13, Orn16, K17(Z), Aib20, D-Glu24, αMeY25, K31(Z), C-terminal NH2; Z = AEEA2-(γ-Glu)-CO-(CH2)10-CH3
B13: Example 278 (peptide)
peptide: YXEGTXTSDXSIXLDXKAQXEFIXXLIKGGPSSGAPPPS
modifications: Aib2, αMeF(2F)6, OMeY10, αMeL13, Orn16, K17(Z), Aib20, D-Glu24, αMeY25, K28(Z), C-terminal NH2; Z = AEEA2-(γ-Glu)-(10-(4-carboxyphenoxy)decanoyl)
B14: Example 157 (peptide)
peptide: YXEGTXTSDXSIXLDXKAQXXFIXXLIEGGKSSGAPPPS
modifications: Aib2, αMeF(2F)6, 4Pal10, αMeL13, Orn16, K17(Z), Aib20, 4Pal21, D-Glu24, αMeY25, K31(Z), C-terminal NH2; Z = AEEA2-(γ-Glu)-CO-(CH2)12-CO2H
B15: Example 277 (peptide)
peptide: YXEGTXTSDXSIXLDXKAQXKFIXXLIEGGPSSGAPPPS
modifications: Aib2, αMeF(2F)6, OMeY10, αMeL13, Orn16, K17(Z), Aib20, K21(Z), D-Glu24, αMeY25, C-terminal NH2; Z = AEEA2-(γ-Glu)-(10-(4-carboxyphenoxy)decanoyl)
B16: Example 159 (peptide)
peptide: YXEGTXTSDXSIXLDXKAQXEFIEXLIEGGKSSGAPPPS
modifications: Aib2, αMeF(2F)6, 4Pal10, αMeL13, Orn16, K17(Z), Aib20, αMeF25, K31(Z), C-terminal NH2; Z = AEEA2-(γ-Glu)-CO-(CH2)12-CO2H
B17: Example 160 (peptide)
peptide: YXEGTXTSDXSIXLDXKAQXEFIKXLIEGGPSSGAPPPS
modifications: Aib2, αMeF(2F)6, 4Pal10, αMeL13, Orn16, K17(Z), Aib20, K24(Z), αMeY25, C-terminal NH2; Z = AEEA2-(εK)-CO-(CH2)12-CO2H
B18: Example 173 (peptide)
peptide: YXEGTXTSDXSIXLDXKAQXEXIXXLIEGGKSSGAPPPS
modifications: Aib2, αMeF6, 4Pal10, αMeL13, Orn16, K17(Z), Aib20, αMeF22, D-Glu24, αMeY25, K31(Z), C-terminal NH2; Z = AEEA2-(γ-Glu)-CO-(CH2)10-CH3
B19: Example 171 (peptide)
peptide: YXEGTXTSDXSIXLDXKAQXEFIXXLIEGGKSSGAPPPS
modifications: Aib2, αMeF(2F)6, 4Pal10, αMeL13, Orn16, K17(Z), Ac6c20, D-Glu24, αMeY25, K31(Z), C-terminal NH2; Z = AEEA2-(γ-Glu)-CO-(CH2)12-CO2H

Tests used:
Assay in all cases: cell-based or functional assay
[1] = biological target: T1, human glucose-dependent insulinotropic …
[2] = biological target: human glucagon-like peptide-1 (GLP-1) receptor (human, UniProt P43220 24-463)
human glucagon receptor = human glucagon receptor (human, UniProt P47871 26-477)

| Binder | cAMP EC50 [1] [nM] | cAMP EC50 [2] [nM] | cAMP EC50 (human glucagon receptor) [µM] | cAMP Emax [1] [%] | cAMP Emax [2] [%] |
| --- | --- | --- | --- | --- | --- |
| B1 | 0.0193 | 0.216 | > 9.95 | – | – |
| B2 | 0.0189 | 0.563 | > 9.95 | – | – |
| B3 | 0.0207 | 0.203 | > 9.95 | – | – |
| B4 | 0.0344 | 0.678 | > 9.95 | – | – |
| B5 | 0.15 | 0.461 | > 9.95 | 91 | 99 |
| B6 | 0.0229 | 0.346 | > 9.95 | – | – |
| B7 | 0.073 | 1.14 | > 9.95 | – | – |
| B8 | 0.0152 | 0.737 | > 9.95 | – | – |
| B9 | 0.0226 | 0.406 | > 9.95 | – | – |
| B10 | 0.154 | 0.182 | > 9.95 | 94.6 | – |
| B11 | 0.0381 | 1.23 | > 9.95 | – | – |
| B12 | 0.0149 | 0.141 | > 9.95 | – | – |
| B13 | 0.0173 | 0.29 | > 9.95 | – | – |
| B14 | 0.0286 | 0.94 | > 9.95 | 98.8 | – |
| B15 | 0.0176 | 0.225 | > 9.95 | – | – |
| B16 | 0.0198 | 0.558 | > 9.95 | 95.3 | 89.4 |
| B17 | 0.0197 | 0.228 | > 9.95 | – | – |
| B18 | 0.0155 | 0.343 | > 9.95 | 87.8 | 89.9 |
| B19 | 0.0389 | 1.7 | > 9.95 | – | – |
